Test results: patent publication US20220023399A1 (CONTRAFECT, published 2022)

Target: T1, human serum albumin (human, UniProt P02768 25-609)
T1 construct: also called HSA; rHSA
Experiment: confocal/deconvolution microscopy; S. aureus ATCC 700699 pretreated with HSA 40 mg/mL, CF-301^RHD at 0.25×MIC

T1 sequence (P02768 25-609): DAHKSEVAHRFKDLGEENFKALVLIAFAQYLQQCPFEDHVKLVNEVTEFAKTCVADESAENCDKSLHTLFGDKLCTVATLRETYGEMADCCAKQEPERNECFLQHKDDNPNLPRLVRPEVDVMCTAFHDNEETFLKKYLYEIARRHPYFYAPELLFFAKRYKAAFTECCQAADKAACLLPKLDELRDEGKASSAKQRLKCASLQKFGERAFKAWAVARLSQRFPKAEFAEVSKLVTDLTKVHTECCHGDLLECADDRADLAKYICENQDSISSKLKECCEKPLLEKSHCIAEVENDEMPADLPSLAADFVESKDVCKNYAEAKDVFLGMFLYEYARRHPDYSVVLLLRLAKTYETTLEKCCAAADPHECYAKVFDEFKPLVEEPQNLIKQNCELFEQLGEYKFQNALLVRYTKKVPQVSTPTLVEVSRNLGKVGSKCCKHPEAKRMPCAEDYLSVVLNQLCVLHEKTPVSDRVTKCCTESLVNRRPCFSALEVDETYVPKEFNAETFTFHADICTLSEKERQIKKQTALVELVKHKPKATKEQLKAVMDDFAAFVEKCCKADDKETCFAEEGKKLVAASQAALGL

B1: rhodamine-labeled PlySs2 (CF-301) (enzyme)
chain: MTTVNEALNNVRAQVGSGVSVGNGECYALASWYERMISPDATVGLGAGVGWVSGAIGDTISAKNIGSSYNWQANGWTVSTSGPFKAGQIVTLGATPGNPYGHVVIVEAVDGDRLTILEQNYGGKRYPVRNYYSAASYRQQVVHYITPPGTVAQSAPNLAGSRSYRETGTMTVTVDALNVRRAPNTSGEIVAVYKRGESFDYDTVIIDVNGYVWVSYIGGSGKRNYVATGATKDGKRFGNAWGTFK
notes: also called CF-301^RHD; CF-301^RHOD
binding result: binds
